{"source": "patent US20260184748A1", "about": "(University of Pennsylvania, published 2026)", "test_in_all_cases": "cell-based or functional assay", "key": {"GPR103": {"target": "T1, GPR103 (UniProt Q96P65 1-431)", "T1 sequence (looked up)": "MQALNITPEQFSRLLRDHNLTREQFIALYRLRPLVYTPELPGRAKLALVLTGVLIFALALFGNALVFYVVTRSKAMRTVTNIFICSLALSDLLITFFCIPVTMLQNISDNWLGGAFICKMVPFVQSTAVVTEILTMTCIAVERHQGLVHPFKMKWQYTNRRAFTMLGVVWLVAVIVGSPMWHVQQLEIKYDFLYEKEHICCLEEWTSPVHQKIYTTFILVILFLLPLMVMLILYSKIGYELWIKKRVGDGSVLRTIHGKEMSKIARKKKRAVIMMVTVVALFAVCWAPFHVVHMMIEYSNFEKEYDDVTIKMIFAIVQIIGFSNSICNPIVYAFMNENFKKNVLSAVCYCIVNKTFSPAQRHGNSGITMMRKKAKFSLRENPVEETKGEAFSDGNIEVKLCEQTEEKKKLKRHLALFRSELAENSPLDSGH"}, "FPRL1": {"target": "T2, FPRL1 (UniProt P25090 1-351)", "T2 sequence (looked up)": "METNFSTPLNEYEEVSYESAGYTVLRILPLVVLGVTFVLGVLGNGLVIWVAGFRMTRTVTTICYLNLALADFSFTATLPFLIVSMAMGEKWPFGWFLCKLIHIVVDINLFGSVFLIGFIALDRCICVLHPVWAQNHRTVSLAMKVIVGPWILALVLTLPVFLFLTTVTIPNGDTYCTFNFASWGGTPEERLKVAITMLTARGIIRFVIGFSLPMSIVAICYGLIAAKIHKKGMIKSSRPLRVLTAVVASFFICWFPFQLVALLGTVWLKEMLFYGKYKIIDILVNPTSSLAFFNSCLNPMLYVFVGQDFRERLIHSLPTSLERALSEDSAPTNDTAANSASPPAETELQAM"}, "TACR2": {"target": "T3, TACR2 (UniProt P21452 1-398)", "T3 sequence (looked up)": "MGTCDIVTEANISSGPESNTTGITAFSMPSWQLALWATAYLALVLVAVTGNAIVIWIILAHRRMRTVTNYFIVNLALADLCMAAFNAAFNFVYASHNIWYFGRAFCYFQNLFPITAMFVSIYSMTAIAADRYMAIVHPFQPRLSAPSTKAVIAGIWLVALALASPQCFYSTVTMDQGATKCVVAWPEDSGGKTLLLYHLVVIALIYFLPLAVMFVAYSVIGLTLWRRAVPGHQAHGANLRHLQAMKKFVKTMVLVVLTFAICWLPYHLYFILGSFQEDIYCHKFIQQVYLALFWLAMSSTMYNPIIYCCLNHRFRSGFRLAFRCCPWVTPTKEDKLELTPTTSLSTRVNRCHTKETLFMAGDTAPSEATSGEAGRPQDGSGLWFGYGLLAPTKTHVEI"}, "CHRM3": {"target": "CHRM3 (UniProt P20309 1-590)", "sequence (P20309 whole entry)": "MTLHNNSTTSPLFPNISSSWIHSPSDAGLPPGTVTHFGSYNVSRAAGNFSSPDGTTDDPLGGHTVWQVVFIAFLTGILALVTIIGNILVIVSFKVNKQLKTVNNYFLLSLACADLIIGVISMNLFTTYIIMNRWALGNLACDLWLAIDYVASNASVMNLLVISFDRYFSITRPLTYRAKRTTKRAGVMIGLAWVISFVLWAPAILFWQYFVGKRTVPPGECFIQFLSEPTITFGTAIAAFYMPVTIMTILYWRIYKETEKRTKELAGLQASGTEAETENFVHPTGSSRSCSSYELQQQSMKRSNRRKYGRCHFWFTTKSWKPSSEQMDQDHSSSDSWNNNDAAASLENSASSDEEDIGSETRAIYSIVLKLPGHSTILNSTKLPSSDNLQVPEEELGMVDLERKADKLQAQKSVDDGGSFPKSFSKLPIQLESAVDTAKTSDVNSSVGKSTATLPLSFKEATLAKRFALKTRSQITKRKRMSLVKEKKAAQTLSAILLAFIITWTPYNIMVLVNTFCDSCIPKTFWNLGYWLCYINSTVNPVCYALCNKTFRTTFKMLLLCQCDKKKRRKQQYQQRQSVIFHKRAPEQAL"}, "EDG7": {"target": "T4, EDG7 (UniProt Q9UBY5 1-353)", "T4 sequence (looked up)": "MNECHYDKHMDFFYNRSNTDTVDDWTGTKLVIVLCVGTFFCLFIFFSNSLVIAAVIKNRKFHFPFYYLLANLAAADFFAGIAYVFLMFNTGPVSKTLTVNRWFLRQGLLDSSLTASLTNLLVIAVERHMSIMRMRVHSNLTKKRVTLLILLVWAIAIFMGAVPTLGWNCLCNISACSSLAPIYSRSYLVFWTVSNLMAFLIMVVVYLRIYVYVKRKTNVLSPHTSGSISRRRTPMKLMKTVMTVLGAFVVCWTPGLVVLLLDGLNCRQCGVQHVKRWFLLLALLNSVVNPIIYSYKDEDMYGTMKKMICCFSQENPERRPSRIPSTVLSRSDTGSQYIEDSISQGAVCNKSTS"}, "GCGR": {"target": "GCGR (UniProt P47871 26-477)"}, "BRS3": {"target": "T5, BRS3 (UniProt P32247 1-399)", "T5 sequence (looked up)": "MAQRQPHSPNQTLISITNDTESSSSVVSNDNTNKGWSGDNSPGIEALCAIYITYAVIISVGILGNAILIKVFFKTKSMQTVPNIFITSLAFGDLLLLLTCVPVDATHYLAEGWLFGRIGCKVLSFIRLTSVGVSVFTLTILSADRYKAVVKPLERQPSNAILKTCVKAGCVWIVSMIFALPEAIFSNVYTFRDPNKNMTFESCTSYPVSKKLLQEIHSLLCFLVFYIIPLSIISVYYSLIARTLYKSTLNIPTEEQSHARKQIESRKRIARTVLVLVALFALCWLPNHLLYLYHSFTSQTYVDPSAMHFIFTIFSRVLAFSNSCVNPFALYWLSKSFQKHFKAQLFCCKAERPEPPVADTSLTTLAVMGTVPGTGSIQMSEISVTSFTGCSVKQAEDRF"}, "CCKBR": {"target": "T6, CCKBR (UniProt P32239 1-447)", "T6 sequence (looked up)": "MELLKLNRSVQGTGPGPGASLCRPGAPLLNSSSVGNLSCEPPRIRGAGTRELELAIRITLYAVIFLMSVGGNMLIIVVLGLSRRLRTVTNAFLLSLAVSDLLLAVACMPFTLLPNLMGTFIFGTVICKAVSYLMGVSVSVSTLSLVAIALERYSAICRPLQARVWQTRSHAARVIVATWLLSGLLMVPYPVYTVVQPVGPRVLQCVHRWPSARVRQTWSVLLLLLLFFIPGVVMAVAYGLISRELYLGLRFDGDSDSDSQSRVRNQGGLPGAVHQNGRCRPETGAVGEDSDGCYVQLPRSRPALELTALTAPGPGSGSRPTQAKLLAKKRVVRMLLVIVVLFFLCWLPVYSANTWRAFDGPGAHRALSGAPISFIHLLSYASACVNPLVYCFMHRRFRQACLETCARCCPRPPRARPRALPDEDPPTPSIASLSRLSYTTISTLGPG"}}, "note": "Where no end group is shown, it is not given here."}
{"binder": "QATVGDVNTDRPGLLDLK (also: synthesised on Rink amide resin, C-terminal amide not given here outright)", "note": "[octadecaneuropeptide (ODN)]", "values": [{"measurement": "% Activity, arrestin, antagonist mode, 2.5 uM", "setting": "GPR103", "value": 14.6, "unit": "%"}, {"measurement": "% Activity, arrestin, antagonist mode, 2.5 uM", "setting": "FPRL1", "value": -17.7, "unit": "%"}, {"measurement": "% Activity, arrestin, antagonist mode, 2.5 uM", "setting": "TACR2", "value": 8.3, "unit": "%"}, {"measurement": "% Activity, arrestin, antagonist mode, 2.5 uM", "setting": "CHRM3", "value": 12.6, "unit": "%"}, {"measurement": "% Activity, arrestin, antagonist mode, 2.5 uM", "setting": "EDG7", "value": 5, "unit": "%"}, {"measurement": "% Activity, arrestin, antagonist mode, 2.5 uM", "setting": "GCGR", "value": -17.2, "unit": "%"}, {"measurement": "% Activity, arrestin, antagonist mode, 2.5 uM", "setting": "BRS3", "value": -5.8, "unit": "%"}, {"measurement": "% Activity, arrestin, antagonist mode, 2.5 uM", "setting": "CCKBR", "value": -7.8, "unit": "%"}]}
